Test results taken from publication PMC2192027.

Legend:
[1] = biological target: CLIMP-63 luminal fragment 268–459 (UniProt Q07065); assay: AUC
[2] = biological target: recombinant full-length luminal segment of CLIMP-63 (amino acids 127–601) (UniProt Q07065); assay: AUC

| Substance | stoichiometry N [1] | percent sedimenting at 26 S (1.5 M urea) [2] [%] | percent sedimenting at 26 S (2 M urea) [2] [%] | percent sedimenting at 26 S (2.5 M urea) [2] [%] |
| --- | --- | --- | --- | --- |
| CLIMP-63 luminal fragment 268–459 (from UniProt Q07065 268-459) (domain or fragment) | 2 | – | – | – |
| recombinant full-length luminal segment of CLIMP-63 (amino acids 127–601) (from UniProt Q07065 127-601) (domain or fragment) | – | 80 | 50 | 20 |
